The supplement of paper PMC10567573

B1: TRIB1 (parent)
chain: EIGTSDQIVPEYQEDSDISSFFC
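Also: lentivirally expressed fusions sorted by FACS into six bins by GFP to DsRed ratio, PSI derived from sequencing read proportions per bin multiplied by bin number.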

Variants of: B1
Experiment: protein stability index of a GFP-peptide fusion (GPS, HEK-293T) (PSI 1-6); higher = more stable
Details: c terminus: native
EIGTSDTIVPEYQEDSDISSFFC gave a protein stability index of 5.64. In the case of EIGTSDRIVPEYQEDSDISSFFC, the protein stability index is reported as 5.27. Variant EIGTSDSIVPEYQEDSDISSFFC has a protein stability index of 5.2. In the case of EIGTSDCIVPEYQEDSDISSFFC, the protein stability index is reported as 5.1. EIGTSDGIVPEYQEDSDISSFFC showed a protein stability index of 5.28. For EIGTSDNIVPEYQEDSDISSFFC, the protein stability index was 4.88. For EIGTSDLIVPEYQEDSDISSFFC, the protein stability index was 4.94. EIGTSDYIVPEYQEDSDISSFFC showed a protein stability index of 4.43. EIGTSDHIVPEYQEDSDISSFFC showed a protein stability index of 5. EIGTSDDIVPEYQEDSDISSFFC gave a protein stability index of 5.53. With EIGTSDIIVPEYQEDSDISSFFC the protein stability index was 4.95. Variant EIGTSDWIVPEYQEDSDISSFFC has a protein stability index of 4. EIGTSDFIVPEYQEDSDISSFFC showed a protein stability index of 3.76. Work on EIGTSDMIVPEYQEDSDISSFFC yielded a protein stability index of 4.79. EIGTSDPIVPEYQEDSDISSFFC showed a protein stability index of 5.3. Work on EIGTSDKIVPEYQEDSDISSFFC yielded a protein stability index of 5.04. For EIGTSDEIVPEYQEDSDISSFFC, the protein stability index was 5.58. For EIGTSDAIVPEYQEDSDISSFFC, the protein stability index was 5.23. EIGTSDVIVPEYQEDSDISSFFC showed a protein stability index of 5.02. In the case of EIGTSDQIVPEYQFDSDISSFFC, the protein stability index is reported as 2.33. EIGTSDQIVPEYQVDSDISSFFC gave a protein stability index of 2.08. EIGTSDQIVPEYQQDSDISSFFC gave a protein stability index of 3.37. EIGTSDQIVPEYQMDSDISSFFC gave a protein stability index of 2.4. In the case of EIGTSDQIVPEYQLDSDISSFFC, the protein stability index is reported as 1.99. In the case of EIGTSDQIVPEYQIDSDISSFFC, the protein stability index is reported as 1.68. EIGTSDQIVPEYQRDSDISSFFC showed a protein stability index of 4.42. EIGTSDQIVPEYQWDSDISSFFC showed a protein stability index of 1.7. Variant EIGTSDQIVPEYQYDSDISSFFC has a protein stability index of 2.43. For EIGTSDQIVPEYQGDSDISSFFC, the protein stability index was 2.83. Variant EIGTSDQIVPEYQDDSDISSFFC has a protein stability index of 2.65. In the case of EIGTSDQIVPEYQTDSDISSFFC, the protein stability index is reported as 2.81. Variant EIGTSDQIVPEYQHDSDISSFFC has a protein stability index of 3.56. For EIGTSDQIVPEYQADSDISSFFC, the protein stability index was 2.81. With EIGTSDQIVPEYQCDSDISSFFC the protein stability index was 2.48. EIGTSDQIVPEYQSDSDISSFFC gave a protein stability index of 2.88. In the case of EIGTSDQIVPEYQPDSDISSFFC, the protein stability index is reported as 2. EIGTSDQIVPEYQKDSDISSFFC showed a protein stability index of 4.03. EIGTSDQIVPEYQNDSDISSFFC showed a protein stability index of 2.94. In the case of EIGTSDQIVPEEQEDSDISSFFC, the protein stability index is reported as 4.77. Work on EIGTSDQIVPECQEDSDISSFFC yielded a protein stability index of 3.68. In the case of EIGTSDQIVPEKQEDSDISSFFC, the protein stability index is reported as 5.54. Variant EIGTSDQIVPEMQEDSDISSFFC has a protein stability index of 2.12. EIGTSDQIVPEQQEDSDISSFFC gave a protein stability index of 4.51. EIGTSDQIVPEFQEDSDISSFFC showed a protein stability index of 3.07. Variant EIGTSDQIVPEVQEDSDISSFFC has a protein stability index of 3.07. With EIGTSDQIVPEWQEDSDISSFFC the protein stability index was 2.44. EIGTSDQIVPEGQEDSDISSFFC showed a protein stability index of 3.27. In the case of EIGTSDQIVPERQEDSDISSFFC, the protein stability index is reported as 4.61. In the case of EIGTSDQIVPEPQEDSDISSFFC, the protein stability index is reported as 3.4. Work on EIGTSDQIVPEDQEDSDISSFFC yielded a protein stability index of 5.11. EIGTSDQIVPEHQEDSDISSFFC gave a protein stability index of 4.37. EIGTSDQIVPEIQEDSDISSFFC gave a protein stability index of 2.91. Work on EIGTSDQIVPESQEDSDISSFFC yielded a protein stability index of 4.19. With EIGTSDQIVPEAQEDSDISSFFC the protein stability index was 3.25. In the case of EIGTSDQIVPENQEDSDISSFFC, the protein stability index is reported as 5.03. Work on EIGTSDQIVPELQEDSDISSFFC yielded a protein stability index of 3.06. EIGTSDQIVPETQEDSDISSFFC gave a protein stability index of 4.48. With EIGTPDQIVPEYQEDSDISSFFC the protein stability index was 3.07. With EIGTLDQIVPEYQEDSDISSFFC the protein stability index was 2.95. Variant EIGTKDQIVPEYQEDSDISSFFC has a protein stability index of 3.47. Variant EIGTVDQIVPEYQEDSDISSFFC has a protein stability index of 3.15. With EIGTWDQIVPEYQEDSDISSFFC the protein stability index was 3.02. EIGTTDQIVPEYQEDSDISSFFC gave a protein stability index of 2.2. In the case of EIGTMDQIVPEYQEDSDISSFFC, the protein stability index is reported as 2.56. Work on EIGTQDQIVPEYQEDSDISSFFC yielded a protein stability index of 2.42. EIGTRDQIVPEYQEDSDISSFFC showed a protein stability index of 2.77. EIGTYDQIVPEYQEDSDISSFFC gave a protein stability index of 1.73. With EIGTNDQIVPEYQEDSDISSFFC the protein stability index was 2.9. Variant EIGTSDQIVHEYQEDSDISSFFC has a protein stability index of 5.41. For EIGTSDQIVSEYQEDSDISSFFC, the protein stability index was 5.59. In the case of EIGTSDQIVAEYQEDSDISSFFC, the protein stability index is reported as 5.38. EIGTSDQIVFEYQEDSDISSFFC showed a protein stability index of 3.77. EIGTSDQIVREYQEDSDISSFFC gave a protein stability index of 5.56. EIGTSDQIVVEYQEDSDISSFFC gave a protein stability index of 5.1. EIGTSDQIVTEYQEDSDISSFFC showed a protein stability index of 5.48. EIGTSDQIVMEYQEDSDISSFFC gave a protein stability index of 5.19. In the case of EIGTSDQIVEEYQEDSDISSFFC, the protein stability index is reported as 5.54. EIGTSDQIVNEYQEDSDISSFFC gave a protein stability index of 5.23. Work on EIGTSDQIVYEYQEDSDISSFFC yielded a protein stability index of 4.71. EIGTSDQIVKEYQEDSDISSFFC gave a protein stability index of 5.56. EIGTSDQIVWEYQEDSDISSFFC showed a protein stability index of 4.52. Variant EIGTSDQIVDEYQEDSDISSFFC has a protein stability index of 5.63. Variant EIGTSDQIVGEYQEDSDISSFFC has a protein stability index of 4.82. With EIGTSDQIVCEYQEDSDISSFFC the protein stability index was 5.2. EIGTSDQIVIEYQEDSDISSFFC showed a protein stability index of 4.09. Variant EIGTSDQIVQEYQEDSDISSFFC has a protein stability index of 4.9. Variant EIGTSDQIVLEYQEDSDISSFFC has a protein stability index of 4.87. Work on EIGTSDQIMPEYQEDSDISSFFC yielded a protein stability index of 5.12. Variant EIGTSDQIHPEYQEDSDISSFFC has a protein stability index of 5.32. EIGTSDQICPEYQEDSDISSFFC showed a protein stability index of 5.31. Work on EIGTSDQISPEYQEDSDISSFFC yielded a protein stability index of 5.26. Work on EIGTSDQIFPEYQEDSDISSFFC yielded a protein stability index of 4.94. With EIGTSDQINPEYQEDSDISSFFC the protein stability index was 5.57. In the case of EIGTSDQIYPEYQEDSDISSFFC, the protein stability index is reported as 5.2. Work on EIGTSDQILPEYQEDSDISSFFC yielded a protein stability index of 4.95. EIGTSDQIDPEYQEDSDISSFFC showed a protein stability index of 5.51. Work on EIGTSDQIEPEYQEDSDISSFFC yielded a protein stability index of 5.74.
